Measured values reported in article doi:10.1101/2021.08.16.456439.

How the values were obtained:
[1] = target: CyPet-Ubc9 (UniProt P63279); assay: FRET or BRET
[2] = target: CyPet-NS1 (influenza virus) (UniProt P03496); assay: FRET or BRET

UniProt P63279, sequence (P63279 whole entry): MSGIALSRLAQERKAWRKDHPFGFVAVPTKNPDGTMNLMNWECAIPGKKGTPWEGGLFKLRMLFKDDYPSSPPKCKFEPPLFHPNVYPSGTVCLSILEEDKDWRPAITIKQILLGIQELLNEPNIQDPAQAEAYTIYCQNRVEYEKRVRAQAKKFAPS

Substance | Kd [1] | Kd [2]
YPet-NS1 (from UniProt P03496 1-230) (natural protein) | 4.84 µM | –
YPet-PIAS1 (from UniProt O75925 1-651) (enzyme) | – | 2.96 µM
